Reference: patent publication US5973118

Key:
[1] = molecular target: trypsin
[2] = molecular target: recombinant plasminogen activator rPA (recombinant tPA derivative comprising the kringle 2 and protease domains) (Homo sapiens (Human)) (UniProt P00750); assay: affinity column: inhibitor coupled to CNBr-Sepharose, loaded with 2 MU r-PA/ml gel, eluted rPA by S2288 amidolytic activity, run 2
[3] = molecular target: recombinant plasminogen activator rPA (recombinant tPA derivative comprising the kringle 2 and protease domains) (Homo sapiens (Human)) (UniProt P00750); assay: affinity column: inhibitor coupled to CNBr-Sepharose, loaded with 2 MU r-PA/ml gel, eluted rPA by S2288 amidolytic activity, run 1
[4] = molecular target: recombinant plasminogen activator rPA (recombinant tPA derivative comprising the kringle 2 and protease domains) (Homo sapiens (Human)) (UniProt P00750); assay: affinity column: inhibitor coupled to CNBr-Sepharose, loaded with 2 MU r-PA/ml gel, eluted rPA by S2288 amidolytic activity, run 3
[5] = molecular target: recombinant plasminogen activator rPA (recombinant tPA derivative comprising the kringle 2 and protease domains) (Homo sapiens (Human)) (UniProt P00750); assay: affinity column: inhibitor coupled to CNBr-Sepharose, eluted rPA; reference seed-ETI-Sepharose
[6] = molecular target: recombinant plasminogen activator rPA (recombinant tPA derivative comprising the kringle 2 and protease domains) (Homo sapiens (Human)) (UniProt P00750); assay: affinity column: inhibitor coupled to CNBr-Sepharose, loaded with 2 MU r-PA/ml gel, eluted rPA by S2288 amidolytic activity, run 5
[7] = molecular target: recombinant plasminogen activator rPA (recombinant tPA derivative comprising the kringle 2 and protease domains) (Homo sapiens (Human)) (UniProt P00750); assay: affinity column: inhibitor coupled to CNBr-Sepharose, loaded with 2 MU r-PA/ml gel, eluted rPA by S2288 amidolytic activity, run 4

Substance: recombinant, non-modified ETI (recETI) (from UniProt P09943)
- specific activity (U/mg), inhibition of trypsin with BAPA as substrate [1]: 1.07 U/mg

Substance: SerETI (recombinant ETI polypeptide in which the N-terminal Val is replaced by Ser)
- Binding capacity MU/ml [2]: 1.35 MU/ml
- Binding capacity MU/ml [3]: 1.28 MU/ml
- specific activity (U/mg), inhibition of trypsin with BAPA as substrate [1]: 1.5 U/mg
- Binding capacity MU/ml [4]: 1.53 MU/ml
- fold higher binding capacity than seed-ETI-Sepharose [5]: 1.5 fold
- Binding capacity MU/ml [6]: 1.49 MU/ml
- Binding capacity MU/ml [7]: 1.48 MU/ml

Substance: ETI isolated from the seeds of Erythrina caffra [ETI (seeds)] (from UniProt P09943)
- Binding capacity MU/ml [2]: 0.95 MU/ml
- Binding capacity MU/ml [3]: 1.04 MU/ml
- specific activity (U/mg), inhibition of trypsin with BAPA as substrate [1]: 0.88 U/mg
- Binding capacity MU/ml [4]: 1.08 MU/ml
- Binding capacity MU/ml [6]: 0.98 MU/ml
- Binding capacity MU/ml [7]: 1.01 MU/ml
